Assay results from article PMC4631608 (Journal of structural and functional genomics, 2015).

Target: the molecule itself
Assay: SEC

B1: M. tuberculosis Rv1496 (natural protein)
chain: MMAASHDDDTVDGLATAVRGGDRAALPRAITLVESTRPDHREQAQQLLLRLLPDSGNAHRVGITGVPGVGKSTAIEALGMHLIERGHRVAVLAVDPSSTRTGGSILGDKTRMARLAVHPNAYIRPSPTSGTLGGVTRATRETVVLLEAAGFDVILIETVGVGQSEVAVANMVDTFVLLTLARTGDQLQGIKKGVLELADIVVVNKADGEHHKEARLAARELSAAIRLIYPREALWRPPVLTMSAVEGRGLAELWDTVERHRQVLTGAGEFDARRRDQQVDWTWQLVRDAVLDRVWSNPTVRKVRSELERRVRAGELTPALAAQQILEIANLTDR
  stoichiometry N: 2
